This note sets out measurements from patent US20220340666A1 (NEW YORK UNIVERSITY, published 2022).

Usually Kd stands for the equilibrium constant for the complex coming apart.

Residue numbers refer to the chain shown, from its start.

B1: G9.1-8 WT mIgG1 (antibody, V domains shown)
VH: EVQLVESGGGLVQPGGSLRLSCAASGFTVSSSSIHWVRQAPGKGLEWVAYIYPYSGYTSYADSVKGRFTISADTSKNTAYLQMNSLRAEDTAVYYCARYSTYSWGGIGKWVWGMDYWGQGTLVTVSS
VL: DIQMTQSPSSLSASVGDRVTITCRASQSVSSAVAWYQQKPGKAPKLLIYSASSLYSGVPSRFSGSRSGTDFTLTISSLQPEDFATYYCQQSYYDSNPITFGQGTKVEIKR
B2: G9.1-8m13 mIgG2a (antibody, V domains shown)
VH: EVQLVESGGGLVQPGGSLRLSCAASGFTVSSSSIHWVRQAPGKGLEWVAYIYPYSSSSSYADSVKGRFTISADTSKNTAYLQMNSLRAEDTAVYYCARYSTYSSKWVWGMDYWGQGTLVTVSS
VL: B1 VL
notes: also called G9.1-8mut13
B3: G9.1-8 Fab (Fab, V domains shown)
VH: B1 VH
VL: B1 VL
notes: Avitag at the C-terminus of the heavy chain, biotinylated when required; also called G9.1-8 WT Fab
B4: G9.1-8m14 Fab (Fab, V domains shown)
VH: EVQLVESGGGLVQPGGSLRLSCAASGFTVSSSSIHWVRQAPGKGLEWVAYIYPYSSSSSYADSVKGRFTISADTSKNTAYLQMNSLRAEDTAVYYCARYSTYKWVWGMDYWGQGTLVTVSS
VL: B1 VL
notes: Purified Fab; also called G9.1-8mut14
B5: G9.1-8m13 Fab (Fab, V domains shown)
VH: B2 VH
VL: B1 VL
notes: Purified Fab; also called G9.1-8mut13
B6: G9.1-8m12 Fab (Fab, V domains shown)
VH: EVQLVESGGGLVQPGGSLRLSCAASGFTVSSSSIHWVRQAPGKGLEWVAYIYPYSSSSSYADSVKGRFTISADTSKNTAYLQMNSLRAEDTAVYYCARYSTYSSSKWVWGMDYWGQGTLVTVSS
VL: B1 VL
notes: Purified Fab; also called G9.1-8mut12
B7: G9.1-10 Fab (Fab, V domains shown)
VH: EVQLVESGGGLVQPGGSLRLSCAASGFTVSYSSIHWVRQAPGKGLEWVASIYSYYGSTYYADSVKGRFTISADTSKNTAYLQMNSLRAEDTAVYYCARGHYQEGRKSGFSYWSPALDYWGQGTLVTVSS
VL: DIQMTQSPSSLSASVGDRVTITCRASQSVSSAVAWYQQKPGKAPKLLIYSASSLYSGVPSRFSGSRSGTDFTLTISSLQPEDFATYYCQQWYWYYPVTFGQGTKVEIKR
B8: G9.1-2 Fab (Fab, V domains shown)
VH: EVQLVESGGGLVQPGGSLRLSCAASGFTISSSSIHWVRQAPGKGLEWVASISSYYGSTYYADSVKGRFTISADTSKNTAYLQMNSLRAEDTAVYYCARSWSSSFWYNWALDYWGQGTLVTVSS
VL: B1 VL with S91W, Y92Q, Y93W, D94G, S95Y, N96S, P97L, I98V
B9: G9.1-7 Fab (Fab, V domains shown)
VH: EVQLVESGGGLVQPGGSLRLSCAASGFTVSSSSIHWVRQAPGKGLEWVASISSYYGYTYYADSVKGRFTISADTSKNTAYLQMNSLRAEDTAVYYCARSYSYGYDYFVKYYTMDYWGQGTLVTVSS
VL: B1 VL with S91Y, Y92P, Y93G, D94Y, S95R, N96G, P97L
B10: G9.1-5 Fab (Fab, V domains shown)
VH: EVQLVESGGGLVQPGGSLRLSCAASGFTIYYSSIHWVRQAPGKGLEWVASISSSYGSTYYADSVKGRFTISADTSKNTAYLQMNSLRAEDTAVYYCARSVSWYPYYYYYGYGSGLDYWGQGTLVTVSS
VL: B1 VL with S91Y, Y93G, D94W, S95F, N96Y, I98V
notes: Avitag at the C-terminus of the heavy chain, biotinylated when required
B11: G9.1-3 Fab (Fab, V domains shown)
VH: EVQLVESGGGLVQPGGSLRLSCAASGFTIYSSSIHWVRQAPGKGLEWVAYIYSSSGYTSYADSVKGRFTISADTSKNTAYLQMNSLRAEDTAVYYCARYSHSSLYYSWIWALDYWGQGTLVTVSS
VL: B1 VL with Y92W, D94S, S95N, N96K
B12: G9.1-9 Fab (Fab, V domains shown)
VH: EVQLVESGGGLVQPGGSLRLSCAASGFTVSSSSIHWVRQAPGKGLEWVAYIYSSSGYTSYADSVKGRFTISADTSKNTAYLQMNSLRAEDTAVYYCARYSSYHYPYWLFAMDYWGQGTLVTVSS
VL: B1 VL with Y93F, D94H, S95K, N96I
B13: G9.1-11 Fab (Fab, V domains shown)
VH: EVQLVESGGGLVQPGGSLRLSCAASGFTVYSSSIHWVRQAPGKGLEWVASIYSYYGYTSYADSVKGRFTISADTSKNTAYLQMNSLRAEDTAVYYCARSTEGYDRWGYYSSYWSSGLDYWGQGTLVTVSS
VL: DIQMTQSPSSLSASVGDRVTITCRASQSVSSAVAWYQQKPGKAPKLLIYSASSLYSGVPSRFSGSRSGTDFTLTISSLQPEDFATYYCQQTYWGLITFGQGTKVEIKR
notes: as for B10
B14: G9.1-4 Fab (Fab, V domains shown)
VH: EVQLVESGGGLVQPGGSLRLSCAASGFTIYYSSIHWVRQAPGKGLEWVASISSSSGSTSYADSVKGRFTISADTSKNTAYLQMNSLRAEDTAVYYCARSYRPYSSYYWGMDYWGQGTLVTVSS
VL: B13 VL with T91S, Y92S, W93S, G94S
B15: G9.2-25 Fab (Fab, V domains shown)
VH: EVQLVESGGGLVQPGGSLRLSCAASGFTLSSSSIHWVRQAPGKGLEWVASIYSSYGSTSYADSVKGRFTISADTSKNTAYLQMNSLRAEDTAVYYCARQYYTYFEWYMGWGYALDYWGQGTLVTVSS
VL: B7 VL with W91S, W93V, V97F
B16: G9.2-26 Fab (Fab, V domains shown)
VH: EVQLVESGGGLVQPGGSLRLSCAASGFTVSSSSIHWVRQAPGKGLEWVAYISSYSGSTYYADSVKGRFTISADTSKNTAYLQMNSLRAEDTAVYYCARSSALYWMDFSYSALDYWGQGTLVTVSS
VL: B1 VL with S91G, Y92G, Y93W, D94Y, S95Y, N96G
B17: G9.2-24 Fab (Fab, V domains shown)
VH: EVQLVESGGGLVQPGGSLRLSCAASGFTVYSSSIHWVRQAPGKGLEWVASIYSSYGYTSYADSVKGRFTISADTSKNTAYLQMNSLRAEDTAVYYCARSYSSETHYGWAMDYWGQGTLVTVSS
VL: B13 VL with T91W, Y92S, W93Q, G94S, L95P, I96V

T3 sequence (O00182 218-355 W309K): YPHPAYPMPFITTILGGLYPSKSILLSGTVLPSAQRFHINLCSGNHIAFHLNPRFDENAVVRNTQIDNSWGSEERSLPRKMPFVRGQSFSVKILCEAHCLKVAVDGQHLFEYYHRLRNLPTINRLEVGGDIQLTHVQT

For the first assay, the target named is T1, human Galectin-9 CRD1 (residues 1-148), biotinylated (human, UniProt O00182 1-148, biotinylated in vitro with BirA (Avitag)).
T1 construct: Made as GST fusion, GST cleaved off with thrombin, gel filtered, biotinylated; not shown: Avitag upstream of the cloned gene (pGEX vector), left after thrombin cleavage from GST
T1 sequence (O00182 1-148): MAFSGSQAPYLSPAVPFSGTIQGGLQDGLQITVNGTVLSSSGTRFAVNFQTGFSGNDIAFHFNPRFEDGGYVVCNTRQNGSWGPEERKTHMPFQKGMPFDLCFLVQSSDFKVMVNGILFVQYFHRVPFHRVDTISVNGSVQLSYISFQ
In words: bead-based binding assay, flow cytometry. The procedure: (§1) The affinities of the antibodies were assessed using a bead-based assay as previously described (Nishikori et al., J Mol Biol, 2012, 424, 391-399) and surface plasmon resonance (SPR). In the bead-based assay, a biotinylated protein (either a Galectin-9 sample or a Fab sample) was immobilized on streptavidin-coated Dynabeads M280 via the biotin-streptavidin interaction. After blocking the excess biotin-binding sites on the beads using unconjugated biotin, binding titration was performed by incubating the second component (i.e., Fab for immobilized Galectin-9 or vice versa), followed by quantification using a dye-labeled neutravidin (ThermoFisher) and flow cytometry analysis. In experiments where the second component is an IgG, a dye-labeled anti-human IgG or anti-mouse IgG antibody was used for detection.
For orientation: A flow cytometer gives signals particle by particle.
As to B1, the Kd stood at 0.63 nM.
Same read-out and setting: the figure for B2 is 0.3 nM.

The target in the next assay is T1, human Galectin-9 CRD1 (residues 1-148), …. The experiment in a line: bead-based binding assay, flow cytometry. This is another data set of the same source. The protocol:
as §1
In the case of B3, binding was characterised by a dissociation constant (Kd) of 2.13 nM.
Turning to B4, the Kd came to 58.5 nM.
As for B5, the affinity, expressed as Kd, was 20.7 nM.
As for B6, binding was put at a Kd of 2.48 nM.

Another assay has the same target. In words: phage ELISA, phage-displayed Fab on biotinylated CRD.
Regarding B7, the binding result was “binds”.
Same read-out and setting: then B8, with “binds”; and B9, with “binds”; and B10, with “binds”.
The same measure, in the same setting: the entry for B11 is “binds”; for B12 it is “binds”.
For B13, the binding result is on record as “binds”.
Still for that read-out and setting: then B14, with “binds”.

The next assay has the same target. The experiment in a line: bead-based binding assay, flow cytometry. The source holds these as a separate data set. The procedure:
as §1
Molecule B1 returned an equilibrium dissociation constant (Kd) of 2.4 nM.
As for B3, binding was characterised by a dissociation constant (Kd) of 0.45 nM.

In another assay the target is T2, human Galectin-9 CRD2 (residues 218-355), biotinylated (human, UniProt O00182 218-355, biotinylated in vitro with BirA (Avitag)).
T2 construct: also called wild type human Galectin-9 CRD2; not shown: hexahistidine tag, Avitag and TEV cleavage site upstream of the cloned gene (pHBT vector)
T2 sequence (O00182 218-355 limits assumed): as the sequence (O00182 218-355 W309K) above, with K92W counted along it
The experiment in a line: phage ELISA, phage-displayed Fab; also on CRD2 pre-incubated with G9.2-17 IgG. The procedure:
(§2) FIG. 13 is a graph showing a binding characterization of G9.2 Fab clone for wild-type Galectin-9 CRD2 or the […] mutant using phage ELISA. Binding of Fab clones to human Galectin-9 CRD2 assayed using phage ELISA.
(§3) Potential additional epitopes were explored using additional clones that bind to Galectin-9 CRD2. A phage display library selection using a modified scheme so as to enrich clones that bind to an epitope that is distinct from that of G9.2-17 was performed.
Regarding B15, the binding result is given as “binds”.
The same measure, in the same setting: then B16, with “binds”.
The same measure, in the same setting: then B17, with “binds”.

The next assay addresses T3, human Galectin-9 CRD2 W309K mutant, biotinylated (human, UniProt O00182 218-355, biotinylated (Avitag)).
T3 construct: also called W309K Galectin-9 CRD2 mutant; not shown: tags of the pHBT vector as for wild-type CRD2
The experiment in a line: phage ELISA, phage-displayed Fab. The protocol:
as §2, §3
In the case of B15, the binding result is “binds”.
Turning to B16, the binding result is on record as “binds”.
Take B17: the binding result is recorded as “binds”.

The target in another assay is T2, human Galectin-9 CRD2 (residues …). The experiment in a line: bead-based binding assay.
In the case of B2, the binding result is given as “no binding”.
